Laboratory results: paper PMC4613500 (2015)

B1: Chordin (protein)
chain: AGPEPPVLPIRSEKEPLPVRGAAGCTFGGKVYALDETWHPDLGEPFGVMRCVLCACEAPQWGRRTRGPGRVSCKNIKPECPTPACGQPRQLPGHCCQTCPQERSSSERQPSGLSFEYPRDPEHRSYSDRGEPGAEERARGDGHTDFVALLTGPRSQAVARARVSLLRSSLRFSISYRRLDRPTRIRFSDSNGSVLFEHPAAPTQDGLVCGVWRAVPRLSLRLLRAEQLHVALVTLTHPSGEVWGPLIRHRALAAETFSAILTLEGPPQQGVGGITLLTLSDTEDSLHFLLLFRGLLEPRSGGLTQVPLRLQILHQGQLLRELQANVSAQEPGFAEVLPNLTVQEMDWLVLGELQMALEWAGRPGLRISGHIAARKSCDVLQSVLCGADALIPVQTGAAGSASLTLLGNGSLIYQVQVVGTSSEVVAMTLETKPQRRDQRTVLCHMAGLQPGGHTAVGICPGLGARGAHMLLQNELFLNVGTKDFPDGELRGHVAALPYCGHSARHDTLPVPLAGALVLPPVKSQAAGHAWLSLDTHCHLHYEVLLAGLGGSEQGTVTAHLLGPPGTPGPRRLLKGFYGSEAQGVVKDLEPELLRHLAKGMASLMITTKGSPRGELRGQVHIANQCEVGGLRLEAAGAEGVRALGAPDTASAAPPVVPGLPALAPAKPGGPGRPRDPNTCFFEGQQRPHGARWAPNYDPLCSLCTCQRRTVICDPVVCPPPSCPHPVQAPDQCCPVCPEKQDVRDLPGLPRSRDPGEGCYFDGDRSWRAAGTRWHPVVPPFGLIKCAVCTCKGGTGEVHCEKVQCPRLACAQPVRVNPTDCCKQCPVGSGAHPQLGDPMQADGPRGCRFAGQWFPESQSWHPSVPPFGEMSCITCRCGAGVPHCERDDCSLPLSCGSGKESRCCSRCTAHRRPAPETRTDPELEKEAEGS
B2: Chordin ∆C ∆C (C-terminally tolloid-cleaved fragment, lacking vWC4) (protein)
chain: AGPEPPVLPIRSEKEPLPVRGAAGCTFGGKVYALDETWHPDLGEPFGVMRCVLCACEAPQWGRRTRGPGRVSCKNIKPECPTPACGQPRQLPGHCCQTCPQERSSSERQPSGLSFEYPRDPEHRSYSDRGEPGAEERARGDGHTDFVALLTGPRSQAVARARVSLLRSSLRFSISYRRLDRPTRIRFSDSNGSVLFEHPAAPTQDGLVCGVWRAVPRLSLRLLRAEQLHVALVTLTHPSGEVWGPLIRHRALAAETFSAILTLEGPPQQGVGGITLLTLSDTEDSLHFLLLFRGLLEPRSGGLTQVPLRLQILHQGQLLRELQANVSAQEPGFAEVLPNLTVQEMDWLVLGELQMALEWAGRPGLRISGHIAARKSCDVLQSVLCGADALIPVQTGAAGSASLTLLGNGSLIYQVQVVGTSSEVVAMTLETKPQRRDQRTVLCHMAGLQPGGHTAVGICPGLGARGAHMLLQNELFLNVGTKDFPDGELRGHVAALPYCGHSARHDTLPVPLAGALVLPPVKSQAAGHAWLSLDTHCHLHYEVLLAGLGGSEQGTVTAHLLGPPGTPGPRRLLKGFYGSEAQGVVKDLEPELLRHLAKGMASLMITTKGSPRGELRGQVHIANQCEVGGLRLEAAGAEGVRALGAPDTASAAPPVVPGLPALAPAKPGGPGRPRDPNTCFFEGQQRPHGARWAPNYDPLCSLCTCQRRTVICDPVVCPPPSCPHPVQAPDQCCPVCPEKQDVRDLPGLPRSRDPGEGCYFDGDRSWRAAGTRWHPVVPPFGLIKCAVCTCKGGTGEVHCEKVQCPRLACAQPVRVNPTDCCKQCPVGSGA

What was measured:
[1] = target: the molecule itself; assay: SPR
[2] = target: the molecule itself; assay: sedimentation velocity analytical ultracentrifugation

Row | Protein | Kd [1] [nM] | Kd [2] [nM]
1 | B1 | 3.05 | 3300
2 | B2 | 3.15 | 
